Results as given in paper doi:10.1101/2021.05.10.443412.

How the values were obtained:
[1] = target: T1, factor inhibiting HIF-1 (FIH-1), full-length (human), Q9NWT6; test: SEC-MALS; settings: remark: other sources report otherwise
[2] = target: T1, factor inhibiting HIF-1 (FIH-1), …; test: SEC; settings: remark: other sources report otherwise

B1: factor inhibiting HIF-1 (FIH-1), full-length, Q9NWT6 1-349 (enzyme)
chain: MAATAAEAVASGSGEPREEAGALGPAWDESQLRSYSFPTRPIPRLSQSDPRAEELIENEEPVVLTDTNLVYPALKWDLEYLQENIGNGDFSVYSASTHKFLYYDEKKMANFQNFKPRSNREEMKFHEFVEKLQDIQQRGGEERLYLQQTLNDTVGRKIVMDFLGFNWNWINKQQGKRGWGQLTSNLLLIGMEGNVTPAHYDEQQNFFAQIKGYKRCILFPPDQFECLYPYPVHHPCDRQSQVDFDNPDYERFPNFQNVVGYETVVGPGDVLYIPMYWWHHIESLLNGGITITVNFWYKGAPTPKRIEYPLKAHQKVAIMRNIEKMLGEALGNPQEVGPLLNTMIKGRYN
- stoichiometry N [1]: 2
- stoichiometry N [2]: 2
